The text below walks through data of the supplement of paper PMC12042874.

This data set is described as follows: amyloid nucleation score (Sup35N fusion, yeast selection) (log enrichment); library NNK1; higher = more nucleation; inactive = no reads after selection. The procedure, abridged: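 The nucleation score equals the log enrichment of output over input reads from DiMSum, centred on the mode score of non-aggregating sequences. It was computed only for sequences with 100 or more input reads. The reads came from Illumina sequencing of plasmid inserts from psi-negative yeast expressing Sup35N fused to peptides of 20 random codons, induced with 100 μM copper sulfate for 24 hours and grown 7 days at 30°C without adenine and uracil.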

± gives the uncertainty stated by the source.

For YCVSFLRSSLP, the amyloid nucleation score came to 3.39 ± 0.12.

Regarding AFEFKRLRIACVNDGQINLG, the amyloid nucleation score worked out at 2.43 ± 0.42.

For HCFYYCMANRL, the amyloid nucleation score amounted to 0.488 ± 0.24.

NLTVCVQCNAAYCNYLSHRD displayed an amyloid nucleation score of 7.517 ± 0.071.

As for NCHVT, the amyloid nucleation score is -0.271 ± 0.29.

As to LVPRIRFWDYHNTELATHQK, the amyloid nucleation score is 5.13 ± 0.07.

Turning to LVYSFRKTFSC, the amyloid nucleation score came out at 7.523 ± 0.047.

Consider CNCAKSNVRCLFLFFDGQTR, for which the amyloid nucleation score was 0.775 ± 0.92.

In turn, HMVFQVKFWTNHRQVFSLPY yielded an amyloid nucleation score of 2.91 ± 0.14.

TWYLDFFSSPFLVGFSLSFG had an amyloid nucleation score of 0.633 ± 0.49.

Take SIWCGRYIIMESVGTPLRSR: the amyloid nucleation score worked out at 0.438 ± 0.8.

The substance TLCFQTISPRRPQLRWTWAH yielded an amyloid nucleation score of 0.875 ± 0.61.

As for LILRLVHKLGLCVPLSGSRG, the amyloid nucleation score is -0.827 ± 1.7.

TSGPN registered an amyloid nucleation score of -0.882 ± 0.6.

NSRNDLVMLILLPSSRAGRL registered an amyloid nucleation score of 0.325 ± 0.99.

For the substance SADQIYHKGQWHSWTNSTNQ, the amyloid nucleation score was 0.35 ± 0.29.

The substance VHWIWGF returned an amyloid nucleation score of 0.228 ± 0.5.

AFYWLHLDGFLQLNQQMSVA returned an amyloid nucleation score of 0.992 ± 0.7.

Turning to DSCVFARSIVVNSNSFEVIE, the amyloid nucleation score was 0.061 ± 0.47.

Consider RNFLNAYW, for which the amyloid nucleation score is -0.307 ± 0.85.

Take NDRTGCVVGLHCEMNI: the amyloid nucleation score was 5.961 ± 0.045.

As for LDVNLGYCHVVYWTIVKVRL, the amyloid nucleation score entry is “inactive”.

For DMCLWARG, the amyloid nucleation score was found to be 0.732 ± 1.

The substance RHALIYMVQVAQAGWGGLEV showed an amyloid nucleation score of -0.767 ± 0.78.

The substance NSCRTRLVTRGCSTVPNMWM yielded an amyloid nucleation score of -0.17 ± 0.43.

In turn, SDGMFSYNVRFAQRSWMYRT yielded an amyloid nucleation score of -0.14 ± 0.55.

Substance TNRVHLWFVL registered an amyloid nucleation score of 7.57 ± 0.078.

GVSMVGGHATLLG displayed an amyloid nucleation score of -0.206 ± 1.2.

As for LPHYNMLSPRIIRTLVVERF, the amyloid nucleation score was 0.694 ± 1.1.

In turn, VIMQFFILCPHSVCISSENH returned an amyloid nucleation score of 7.497 ± 0.049.

Substance CPSEYQIAGMIASSYMHLGE yielded an amyloid nucleation score of 0.872 ± 0.33.

The substance ISHSIAVRNNLLLFGPCQNR gave an amyloid nucleation score of 2.12 ± 0.12.

For the substance IRTCLVSIVATRCKVGVESP, the amyloid nucleation score stood at 0.403 ± 0.34.

Take WGVFDTETIVWFVYIGTL: the amyloid nucleation score is -0.026 ± 0.32.

As to TYDALRGYNYHLWSNQFTFY, the amyloid nucleation score stood at 4.84 ± 0.066.

With STYTALIFLHRSVFDLPSVQ, the amyloid nucleation score is 0.787 ± 0.68.

Turning to MFYKSRLYNRYRYRHRCYNT, the amyloid nucleation score was -0.072 ± 0.27.

YCWFFMLWEYTCWLVF had an amyloid nucleation score of 0.17 ± 0.28.

With GFKRRYCDNISAIHPDSGCK, the amyloid nucleation score entry was “inactive”.

For the substance DSWLVAESSIHAF, the amyloid nucleation score was -0.049 ± 1.5.

In turn, NMCFYELDGYMLGNYLARQF came in with an amyloid nucleation score of -1.51 ± 1.3.

For the substance LLSQVTCGMQTVRRNGGIIR, the amyloid nucleation score was -0.195 ± 0.65.

MADFFIHCFLSSYCEWFIWR yielded an amyloid nucleation score of -0.283 ± 0.46.

As to SPPSLRNLNYIFAY, the amyloid nucleation score was -0.948 ± 2.4.

Take FATAGKFVY: the amyloid nucleation score is -1.23 ± 1.2.

Take SLYLYMGWPSHWVESVLPYG: the amyloid nucleation score is 0.043 ± 0.89.

For the substance WGYRHSYSVGPRW, the amyloid nucleation score entry is “inactive”.

For MIQVPFKCPCKLTADLGGNW, the amyloid nucleation score entry was “inactive”.

The substance CKRTSDPCHIVECFLPFHVL yielded an amyloid nucleation score of 0.315 ± 0.85.

As to CWPRWNSVSLGSLSILLCFF, the amyloid nucleation score is 3.77 ± 0.11.

As to KAPKYRDRRVGVNVKYWYMP, the amyloid nucleation score was found to be 0.058 ± 0.66.

Substance MHYGTLSIVV gave an amyloid nucleation score of 0.302 ± 0.3.

NLFSGNLPRFDFAIQGAFVN: the amyloid nucleation score is -0.447 ± 0.48.

The substance AVWLVQSHPN came in with an amyloid nucleation score of 0.499 ± 0.58.

In turn, IGQFMVDWYNIGGREPVPGS had an amyloid nucleation score of 0.301 ± 0.78.

Regarding WSIDVNTTACKFFFRCSSCN, the amyloid nucleation score was 1.43 ± 0.74.

IGWCWVIMQGNIEQVDRG had an amyloid nucleation score of 4.72 ± 0.074.

LHMLKMICKVVNRVSYS yielded an amyloid nucleation score of -0.098 ± 0.23.

MDTSL: the amyloid nucleation score was -0.235 ± 0.82.

On to DTAWNLVQSVS, for which the amyloid nucleation score came out at 0.496 ± 0.7.

For the substance SMQQVSTSVQKVMDAYHWGW, the amyloid nucleation score worked out at 0.554 ± 0.79.

VALWGQYGTSIGAIGAVFSH displayed an amyloid nucleation score of -0.03 ± 0.54.

ADSLSDELFDYKTYIAVKSF displayed an amyloid nucleation score of -0.645 ± 0.27.

Turning to YSVFALRINLFAYTIPNSVL, the amyloid nucleation score is -0.34 ± 0.24.

SSTGAVLIHNCTTRSVDLSG came in with an amyloid nucleation score of 0.45 ± 0.69.

Consider LINKNSSSAFCVMLGHYWVR, for which the amyloid nucleation score is -1.03 ± 0.66.

GSVINGWRRYLFVISILLGL came in with an amyloid nucleation score of -0.374 ± 0.32.

In the case of QMNGWVCCFSQGQRMFVLLM, the amyloid nucleation score came to 0.977 ± 0.47.

Take AGLVYEIKWYYADL: the amyloid nucleation score is -0.482 ± 0.33.

As for CDCTSRGK, the amyloid nucleation score is -0.407 ± 1.5.

CCTNM: the amyloid nucleation score was determined as 0.332 ± 0.22.

With SSSYVYYEGRFILTFGLF, the amyloid nucleation score is -0.157 ± 0.47.

The substance SFNVAMCRCDVYL registered an amyloid nucleation score of 7.027 ± 0.047.

For LMASDVT, the amyloid nucleation score was 0.127 ± 0.43.

In turn, TSPEVLRAIVSTSLFCCILR had an amyloid nucleation score of -0.724 ± 2.4.

On to EGIIYS, for which the amyloid nucleation score was -0.692 ± 1.1.

Consider HYRYGGLAMFLVWIEMFLYW, for which the amyloid nucleation score is 0.407 ± 1.1.

In the case of CYKVFPVVSYKVGGASLTAR, the amyloid nucleation score was found to be 0.105 ± 0.31.

Substance WSINMCCMRSRLWNFDGRKE came in with an amyloid nucleation score of 4.04 ± 0.074.

With SCKDSCTEYSGAIYVLVWVK, the amyloid nucleation score worked out at 0.604 ± 0.56.

In turn, IASDRFF came in with an amyloid nucleation score of 0.77 ± 0.97.

KGLLTGSCVDSS displayed an amyloid nucleation score of -0.015 ± 0.51.

Consider SRVRVLASVSFMTVRMVFEV, for which the amyloid nucleation score was found to be 0.436 ± 0.25.

In turn, FMKSKAAAYS returned an amyloid nucleation score of -0.247 ± 0.63.

KETSVSLHEDGIYCGFITSN came in with an amyloid nucleation score of 0.187 ± 0.28.

On to GRLHRRDMIGRHVDDSGPMS, for which the amyloid nucleation score result was “inactive”.

In turn, TQVWTQRCPCKEASRPGLRT displayed an amyloid nucleation score of -1.19 ± 2.7.

SKSLKYICMYFQHTNSLASI came in with an amyloid nucleation score of 0.241 ± 1.2.

QKYPPRGNRFSLCRITVSCF showed an amyloid nucleation score of 0.22 ± 0.89.

Substance LVFTCVGCWYQGKLWNE displayed an amyloid nucleation score of 4.25 ± 0.12.

Substance WCLGMWLLHVLTTETTFKCT had an amyloid nucleation score of -0.158 ± 0.34.

With STPNRLGPMPSWVGSTEAVV, the amyloid nucleation score is -0.474 ± 1.1.

For the substance NNAGYRYALRKISSHLLRPV, the amyloid nucleation score is -0.092 ± 0.44.

In turn, GNTSMILSPA came in with an amyloid nucleation score of -0.511 ± 1.1.

In the case of PNPWRLRWLLALDMNLVGLQ, the amyloid nucleation score turned out to be 0.376 ± 1.1.

On to SLVLVYGFWELYLW, for which the amyloid nucleation score worked out at 0.689 ± 0.84.

Consider RLVTYPSVLSSVSEGSGRGG, for which the amyloid nucleation score came to 1.05 ± 0.66.

Take SGKPYLLGCTFSSVTLCPQV: the amyloid nucleation score was -0.227 ± 0.38.

The substance GLRWYQFEPTQG gave an amyloid nucleation score of 0.126 ± 0.38.

For DSSLEVRRNRTSRLYAHFT, the amyloid nucleation score was -0.218 ± 0.39.

On to WRNYYHWVTFRSDRLDRWFG, for which the amyloid nucleation score amounted to 1.85 ± 0.12.

GFVTWPLSRSPGSPGCAALM displayed an amyloid nucleation score of 0.015 ± 0.39.

Substance PKMAPRNINVGRS displayed an amyloid nucleation score of 0.26 ± 0.54.

In turn, LVVFISRVFTNDITFRFANI came in with an amyloid nucleation score of 0.675 ± 0.78.

As for RYMSHGIGGTPV, the amyloid nucleation score was determined as 0.142 ± 0.69.

As to GDIVQLGPKFCKLYLCIWNC, the amyloid nucleation score was determined as 6.369 ± 0.056.

Substance FIRGLCNVLGCSR gave an amyloid nucleation score of 1.04 ± 0.24.

VSIGIISII registered an amyloid nucleation score of -0.663 ± 1.6.

In turn, ILYNA came in with an amyloid nucleation score of -0.166 ± 1.2.

In turn, VFLRRVINTSFGSMMV registered an amyloid nucleation score of 0.976 ± 1.1.

For the substance EMNVSILKHAYSQALSFARW, the amyloid nucleation score was -0.068 ± 0.45.

The substance IWTKSCDCVCSCGGYQGCYR came in with an amyloid nucleation score of -0.038 ± 0.19.

In the case of EMAELLAMRQLLRTKIH, the amyloid nucleation score was found to be 0.265 ± 0.34.

IYMVGAEPVRERDIVFVPTL: the amyloid nucleation score was 1.24 ± 0.98.

Consider RCMNWVKCDRNPCVMLSIGT, for which the amyloid nucleation score result is “inactive”.

Turning to RARRGWSTGDEQHMSGKGIK, the amyloid nucleation score amounted to 0.097 ± 0.49.

As for SSERGTWIMVARVQSVTNNV, the amyloid nucleation score result is “inactive”.

On to YSGVPLARQCGADGLKGTGE, for which the amyloid nucleation score is 0.724 ± 1.2.

In the case of WTWILPMVRTIIYQY, the amyloid nucleation score was -0.356 ± 0.27.

On to SLFATGN, for which the amyloid nucleation score entry is “inactive”.

As for HRNWCCCCSCWSRLKMHLEL, the amyloid nucleation score was -1.32 ± 0.64.

Consider LCKIKESNDLFSARSIVAHQ, for which the amyloid nucleation score turned out to be 1.06 ± 0.59.

In turn, LVPPGSYRSCLSHGRNCYSC had an amyloid nucleation score of -0.203 ± 0.46.

The substance SPHSLTFSLMVMVRKKMMRS came in with an amyloid nucleation score of 0.012 ± 1.4.

As for PTAEV, the amyloid nucleation score was determined as 0.545 ± 0.76.

Substance IWLSLYIAFYGCLHGWFPSQ came in with an amyloid nucleation score of 0.645 ± 0.6.

As to IGCSI, the amyloid nucleation score entry was “inactive”.

Substance HYSRDSLVVWYI displayed an amyloid nucleation score of -0.228 ± 0.56.

In turn, CLMGTHILGSRVVGTPSMVR displayed an amyloid nucleation score of 0.47 ± 1.2.

HWCCIKSVGCIWIRKSVTRC registered an amyloid nucleation score of 0.204 ± 0.43.

DHVDYSILNYSPMFDCVKFC: the amyloid nucleation score was found to be 0.028 ± 0.27.

Take PLRDGA: the amyloid nucleation score is -0.856 ± 2.4.

LIKRVQLFV displayed an amyloid nucleation score of -0.284 ± 0.4.

The substance SGTFLTFPYFIFCNVMICMS showed an amyloid nucleation score of 6.969 ± 0.049.

Turning to NTCYALIMVLYRRDRGPANM, the amyloid nucleation score is 1.55 ± 0.17.

Substance YIWFC registered an amyloid nucleation score of 6.28 ± 0.071.

Turning to RAHVLLLFMNCRRCKQTMIR, the amyloid nucleation score was -0.88 ± 1.1.

In the case of LYIYWCSWVNGTFT, the amyloid nucleation score amounted to 0.393 ± 0.33.

On to VAGCNVDIDVNMSCRGDMWK, for which the amyloid nucleation score was 2.81 ± 0.12.

STDMYVPVPDTDWIICLRQL gave an amyloid nucleation score of -0.23 ± 0.56.
